Test [1] has as its target BRAF V599E V-raf murine sarcoma viral oncogene homolog B1 V599E mutation, P15056. Kind of test: cell-based or functional assay.
For test [2], the target named is PRKCB1 (PKC beta I) Protein kinase C, beta 1, P05771. Nature of the test: cell-based or functional assay.

B1: D3 peptide (peptide)
peptide: SGRPPMIVWFNRPFLIAVSHTHGQTILFMAKVINPVGA
Turning to B1, the % Inhibition mean is 99.8% in test [1] and 88% in test [2].
